Where no end group is shown, it is not given here.
Target: T1, human L3MBTL1 R467C mutant containing 3 MBT repeats (residues 200-522, 3MBT) (human)
T1 construct: also called L3MBTL1 Arg467Cys mutant; source: expressed and purified as previously described [20]
Assay: ITC; L3MBTL1 R467C mutant titrated with H4K20me2; data not shown
Settings: both partners purified

stoichiometry N: 1
Binder: RHRK(dimethyl)VLRDN [H4K20me2 peptide (used for co-crystallisation and ITC with L3MBTL1 R467C)]

Source: paper PMC2747274, “Structural Studies of a Four-MBT Repeat Protein MBTD1” (PLoS ONE, 2009)
